Consider four molecules from paper PMC11476691, “ATM1, an essential conserved transporter in Apicomplexa, bridges mitochondrial and cytosolic [Fe-S] biogenesis” (PLOS Pathogens, 2024).

Series [1] concerns the target T1, PfATM1-CTD (Plasmodium falciparum, UniProt Q8IDH9).
T1 construct: gene ABCB6
T1 sequence (Q8IDH9 807-1049): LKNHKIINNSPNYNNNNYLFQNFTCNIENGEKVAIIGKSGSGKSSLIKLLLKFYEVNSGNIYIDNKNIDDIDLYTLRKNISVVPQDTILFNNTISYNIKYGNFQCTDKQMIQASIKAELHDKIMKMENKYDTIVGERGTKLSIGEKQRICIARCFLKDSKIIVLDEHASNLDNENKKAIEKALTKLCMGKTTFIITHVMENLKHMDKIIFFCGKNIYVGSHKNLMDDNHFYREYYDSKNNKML
In words: UV-VIS spectroscopy. The settings on record: as purified; lower intensity than full length. The series is classed as binding.

The target in series [2] is T2, PfIscA2 (Plasmodium falciparum, UniProt O97297).
T2 construct: gene IscA2; GST fusion from pGEX-KG in E. coli C43, GST removed by thrombin
T2 sequence (O97297 1-404): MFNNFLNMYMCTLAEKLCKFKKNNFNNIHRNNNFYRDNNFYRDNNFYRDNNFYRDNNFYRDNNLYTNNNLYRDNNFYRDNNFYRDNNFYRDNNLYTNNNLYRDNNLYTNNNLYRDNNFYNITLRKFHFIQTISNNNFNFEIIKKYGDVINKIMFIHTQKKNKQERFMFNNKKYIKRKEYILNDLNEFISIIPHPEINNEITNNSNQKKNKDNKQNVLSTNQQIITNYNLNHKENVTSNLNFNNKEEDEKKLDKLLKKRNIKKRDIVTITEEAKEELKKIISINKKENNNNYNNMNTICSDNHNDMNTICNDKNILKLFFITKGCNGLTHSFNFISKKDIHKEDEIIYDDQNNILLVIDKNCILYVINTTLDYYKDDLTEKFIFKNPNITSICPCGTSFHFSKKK
In words: chemical reconstitution, cluster donor assay, UV-VIS. The series is classed as binding. The following applies: anaerobic, 25 mM Tris-Cl pH 7.5, 100 mM NaCl.

Series [3] has as its target T3, PfIscU (Plasmodium falciparum, UniProt Q8IKT4).
T3 construct: gene IscU; GST fusion from pGEX-KG in E. coli BL21(DE3), GST removed by thrombin
T3 sequence (Q8IKT4 1-162): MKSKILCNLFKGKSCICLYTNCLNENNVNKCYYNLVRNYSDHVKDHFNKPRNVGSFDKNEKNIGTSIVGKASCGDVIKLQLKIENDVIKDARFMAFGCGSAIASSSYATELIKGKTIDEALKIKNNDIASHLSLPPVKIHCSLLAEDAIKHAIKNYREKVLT
Described as above. It counts as binding. The following applies: anaerobic, 25 mM Tris-Cl pH 7.5, 100 mM NaCl.

Substrate in series [4]: Nc1ncnc2c1ncn2[C@@H]1O[C@H](COP(=O)(O)OP(=O)(O)OP(=O)(O)O)[C@@H](O)[C@H]1O
Kind of series: ATPase, phosphate release (EnzChek MESG/PNP). The settings on record: 500 nM holo-PfATM1, increasing ATP, no GSSG. It counts as biochemical, Plasmodium falciparum.

Series [5] concerns the molecule itself. Kind of series: SEC + native gel or EMSA; Superdex S-200; fractions electrophoresed on 6% native-PAGE; dimer to monomers.
Series [6] deals with the molecule itself. In words: SDS-PAGE of the purified protein; purified PfATM1-CTD on Coomassie-stained SDS-PAGE and western blot with anti-6XHis Ab; dimer of about 60 kDa beside the monomer of about 30 kDa; broken with DTT and urea.

As to `[S]12[Fe]3[S]4[Fe]1[S]1[Fe]2[S]3[Fe]41` [[4Fe-4S]], the UV-VIS spectroscopy result in series [1] is “A lower intensity [4Fe-4S] peak was also observed in PfATM1-CTD”. For the same molecule, the “chemical reconstitution, cluster donor assay, UV-VIS” value is “Reconstituted PfIscU and PfIscA2 carrying [4Fe-4S] were then used as cluster donors” in series [2]; “Reconstituted PfIscU and PfIscA2 carrying [4Fe-4S] were then used as cluster donors” in series [3].

B1: PfATM1 (PfABCB6 / PfMDR6) (Plasmodium falciparum 3D7) (protein)
chain: RISDEFYSSFLYHSYIENLKSTKEYVYFIYLQDIYYNINIFKNKGRLYISNNGLCNDKLKDNNNNNNINSNNFGNSYNAYTKKKSFYHSFNDLNEAKEIRKKRKNEKSEKNIVEYLLCNIINPNENYHIQNIYNHNLNNNVSIEIHKKNDSVMYHYNNEKKTKTSKMTTDIKLKQINNVYIKYVPYKNKIITLACPNKYYPTLYRYFSSHTNKKEDAEENDKNKNININNVDNRYKEDFMYGCENKNDSEKHKKTTNNNFGDEFEKLKVKELDKILNKLEMLYDNKNNKMNINVKILGYIFKNFLLKNKELKRKIFCSLFFLLCSKMAIIYTPILLSTFIENVNLQKSLSNNIDIYSTNKSSVLLLCAYVFSRVLSSTMNELRNSVFSNISQKISTFVSKLFFYKIHNLNLTYILSKKNGELSFIFNRGCKSITNLLNVMVFQIIPIIIEFILYLYILTYKIHYTVSLVTCFNMFLYVLFTTLITKRRTIIRKHMNKAEQNTFNIFLDSIQNVEQVKYYTNEIHELKKFIKEQKKYEKEAINVQKSLSFLNFGQQIILNTNLFLCMYLTYLNIANDIFPFSYLILVNTLLFQLAMPLNMFGTIYRETKLSLVDIESMIKILVKKIKSPDYGNQMLIKNGNIKFENVYFKYPLNEDINGLEQNYQAKEKDPNIINNINNINNINNINNINNINSINNIYTFESNVKNISSTNMITSSINKLKKWYLDKVKDNKKNVQYNNNDVKKTNPNITKNLNKEIKENINTHLKNHKIINNSPNYNNNNYLFQNFTCNIENGEKVAIIGKSGSGKSSLIKLLLKFYEVNSGNIYIDNKNIDDIDLYTLRKNISVVPQDTILFNNTISYNIKYGNFQCTDKQMIQASIKAELHDKIMKMENKYDTIVGERGTKLSIGEKQRICIARCFLKDSKIIVLDEHASNLDNENKKAIEKALTKLCMGKTTFIITHVMENLKHMDKIIFFCGKNIYVGSHKNLMDDNHFYREYYDSKNNKML
notes: predicted mature form aa 43-1049 (MTS removed), E. coli YbeL hydrophilic domain (beta) and 6xHis fused at both N- and C-termini (pET28a beta-PfATM1-beta), E. coli C43, 152 kDa monomer, homodimer
For B1, in series [4], the Km (as a rule, the concentration of substrate that gives half-maximal velocity) is 178.9 ± 34.86 µM; the turnover number (kcat) (usually the number of substrate molecules converted per active site and unit of time at saturation) worked out at 0.129 ± 0.00767 s⁻¹.

B2: recombinant PfATM1 (6X-His tagged β-PfATM1-β) (natural protein, P. falciparum, UniProt Q8IDH9 43-1049, looked up)
chain: RISDEFYSSFLYHSYIENLKSTKEYVYFIYLQDIYYNINIFKNKGRLYISNNGLCNDKLKDNNNNNNINSNNFGNSYNAYTKKKSFYHSFNDLNEAKEIRKKRKNEKSEKNIVEYLLCNIINPNENYHIQNIYNHNLNNNVSIEIHKKNDSVMYHYNNEKKTKTSKMTTDIKLKQINNVYIKYVPYKNKIITLACPNKYYPTLYRYFSSHTNKKEDAEENDKNKNININNVDNRYKEDFMYGCENKNDSEKHKKTTNNNFGDEFEKLKVKELDKILNKLEMLYDNKNNKMNINVKILGYIFKNFLLKNKELKRKIFCSLFFLLCSKMAIIYTPILLSTFIENVNLQKSLSNNIDIYSTNKSSVLLLCAYVFSRVLSSTMNELRNSVFSNISQKISTFVSKLFFYKIHNLNLTYILSKKNGELSFIFNRGCKSITNLLNVMVFQIIPIIIEFILYLYILTYKIHYTVSLVTCFNMFLYVLFTTLITKRRTIIRKHMNKAEQNTFNIFLDSIQNVEQVKYYTNEIHELKKFIKEQKKYEKEAINVQKSLSFLNFGQQIILNTNLFLCMYLTYLNIANDIFPFSYLILVNTLLFQLAMPLNMFGTIYRETKLSLVDIESMIKILVKKIKSPDYGNQMLIKNGNIKFENVYFKYPLNEDINGLEQNYQAKEKDPNIINNINNINNINNINNINNINSINNIYTFESNVKNISSTNMITSSINKLKKWYLDKVKDNKKNVQYNNNDVKKTNPNITKNLNKEIKENINTHLKNHKIINNSPNYNNNNYLFQNFTCNIENGEKVAIIGKSGSGKSSLIKLLLKFYEVNSGNIYIDNKNIDDIDLYTLRKNISVVPQDTILFNNTISYNIKYGNFQCTDKQMIQASIKAELHDKIMKMENKYDTIVGERGTKLSIGEKQRICIARCFLKDSKIIVLDEHASNLDNENKKAIEKALTKLCMGKTTFIITHVMENLKHMDKIIFFCGKNIYVGSHKNLMDDNHFYREYYDSKNNKML
notes: P. falciparum ATM1 (PfATM1, ABCB6, MDR6), PF3D7_1352100, predicted mature form, aa 43-1049; Monomer 152 kDa, dimer about 300 kDa with the fusion domains; also called full-length PfATM1; PfATM1 dimer; source: E. coli C43, purified from membranes (DDM and Triton X-114, Ni-NTA, SEC Superdex S-200); not shown: E. coli YbeL hydrophilic fusion domain (β), N-terminal, kept; E. coli YbeL hydrophilic …
For the molecule B2, in series [5], the stoichiometry N (as a rule, a count of units in the complex or per binding partner) was found to be 2.

B3: PfATM1-CTD (domain or fragment, P. falciparum, UniProt Q8IDH9 807-1049, looked up)
chain: LKNHKIINNSPNYNNNNYLFQNFTCNIENGEKVAIIGKSGSGKSSLIKLLLKFYEVNSGNIYIDNKNIDDIDLYTLRKNISVVPQDTILFNNTISYNIKYGNFQCTDKQMIQASIKAELHDKIMKMENKYDTIVGERGTKLSIGEKQRICIARCFLKDSKIIVLDEHASNLDNENKKAIEKALTKLCMGKTTFIITHVMENLKHMDKIIFFCGKNIYVGSHKNLMDDNHFYREYYDSKNNKML
notes: P. falciparum ATM1 (PfATM1, ABCB6, MDR6), PF3D7_1352100, C-terminal ATPase domain, aa 807-1049; Cloned in pET23a; About 30 kDa, with a dimeric form of about 60 kDa on SDS-PAGE; also called C-terminal ATPase domain of PfATM1; source: E. coli BL21 (DE3), purified (Ni-NTA, SEC Superdex S-75)
With B3, in series [6], the “stoichiometry N” value amounted to 2.
